Data taken from article PMC10611751 (2023).

B1: E-cadherin residues 854-869 (site-3) [mouse] / Ankyrin-G 24 ANK repeats (residues 38-855) [not stated] (parent complex)
chain 1: ESDQDQDYDYLNEWGN
chain 2: KSDANASYLRAARAGHLEKALDYIKNGVDVNICNQNGLNALHLASKEGHVEVVSELLQREANVDAATKKGNTALHIASLAGQAEVVKVLVTNGANVNAQSQNGFTPLYMAAQENHLEVVRFLLDNGASQSLATEDGFTPLAVALQQGHDQVVSLLLENDTKGKVRLPALHIAARKDDTKAAALLLQNDTNADIESKMVVNRATESGFTPLHIAAHYGNINVATLLLNRAAAVDFTARNDITPLHVASKRGNANMVKLLLDRGAKIDAKTRDGLTPLHCGARSGHEQVVEMLLDRAAPILSKTKNGLSPLHMATQGDHLNCVQLLLQHNVPVDDVTNDYLTALHVAAHCGHYKVAKVLLDKKANPNAKALNGFTPLHIACKKNRIRVMELLLKHGASIQAVTESGLTPIHVAAFMGHVNIVSQLMHHGASPNTTNVRGETALHMAARSGQAEVVRYLVQDGAQVEAKAKDDQTPLHISARLGKADIVQQLLQQGASPNAATTSGYTPLHLSAREGHEDVAAFLLDHGASLSITTKKGFTPLHVAAKYGKLEVASLLLQKSASPDAAGKSGLTPLHVAAHYDNQKVALLLLDQGASPHAAAKNGYTPLHIAAKKNQMDIATSLLEYGADANAVTRQGIASVHLAAQEGHVDMVSLLLSRNANVNLSNKSGLTPLHLAAQEDRVNVAEVLVNQGAHVDAQTKMGYTPLHVGCHYGNIKIVNFLLQHSAKVNAKTKNGYTPLHQAAQQGHTHIINVLLQNNASPNELTVNGNTALAIARRLGYISVVDTLKVVTEEIMTTTTITEKHKMNVPETMNEVLDMS
B2: E-cadherin residues 828-842 (site-2) [mouse] / Ankyrin-G 24 ANK repeats (residues 38-855) [not stated] (parent complex)
chain 1: PYDSLLVFDYEGSGS
chain 2: B1 chain 2
B3: E-cadherin residues 755-770 (site-1) [mouse] / Ankyrin-G 24 ANK repeats (residues 38-855) [not stated] (parent complex)
chain 1: YYYDEEGGGEEDQDFD
chain 2: B1 chain 2

Variants of: B1
Test: ITC; parent: 1.8e+03 nM

Kd [µM] | Variant
3.9 | chain 1 ESDQDQDYDALNEWGN [chain 1 Y10A]
5.8 | chain 1 ESDQDQDADALNEWGN [chain 1 Y8A, chain 1 Y10A]
3.2 | chain 1 ESDQDQDADYLNEWGN [chain 1 Y8A]
3.9 | chain 1 ESDQDQDYDYLNEAGN [chain 1 W14A]

Variants of: B2
Test: ITC; parent: 1.9e+03 nM

Kd [µM] | Variant
1.7 | chain 1 PADSLLVFDYEGSGS [chain 1 Y2A]
9.5 | chain 1 PYDSLLVFDAEGSGS [chain 1 Y10A]

Variants of: B3
Test: ITC; parent: 900 nM

Variant | Kd [µM]
chain 1 AAYDEEGGGEEDQDFD [chain 1 Y1A, chain 1 Y2A] | 4.2
chain 1 AYYDEEGGGEEDQDFD [chain 1 Y1A] | 5
chain 1 YAYDEEGGGEEDQDFD [chain 1 Y2A] | 2.2
chain 1 AYADEEGGGEEDQDFD [chain 1 Y1A, chain 1 Y3A] | 4.1

Second part, the variant after the results:

Kd [µM] | Variant
7.1 | chain 1 YAADEEGGGEEDQDFD [chain 1 Y2A, chain 1 Y3A]
2.2 | chain 1 YYADEEGGGEEDQDFD [chain 1 Y3A]
